Source: the supplement of paper PMC11908140

B1: library; numbered along this chain (parent)
chain: MRKPRAAVGSGHRKQAASQEGRQKHAKNNSQAKPSACDGLARQPEEVVLQASVSSYHLFRDVAEVTAFRGSLLSWYDQEKRDLPWRRRAEDEMDLDRRAYAVWVSEVMLQQTQVATVINYYTGWMQKWPTLQDLASASLEEVNQLWAGLGYYSRGRRLQEGARKVVEELGGHMPRTAETLQQLLPGVGRYTAGAIASIAFGQATGVVDGNVARVLCRVRAIGADPSSTLVSQQLWGLAQQLVDPARPGDFNQAAMELGATVCTPQRPLCSQCPVESLCRARQRVEQEQLLASGSLSGSPDVEECAPNTGQCHLCLPPSEPWDQTLGVVNFPRKASRKPPREESSATCVLEQPGALGAQILLVQRPNSGLLAGLWEFPSVTWEPSEQLQRKALLQELQRWAGPLPATHLRHLGEVVHTFSHIKLTYQVYGLALEGQTPVTTVPPGARWLTQEEFHTAAVSTAMKKVFRVYQGQQPGTCMGSKRSQVSSPCSRKKPRMGQQVLDNFFRSHISTDAHSLNSAAQ

Variants of: B1
Test: 8OG:A repair function score (normalized; synonymous = 0, nonsense = -1) (normalized log-likelihood score); higher = more repair activity (WT-like)
Conditions: with 8OG:A DNA repair reporter (GFP) in HEK-293 MUTYH KO cells
In short: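 Per-tile Rosace fitness scores were converted to a normalized repair function score anchored on synonymous and nonsense distributions. That scale puts synonymous medians at 0 and nonsense medians at -1. Variants with starting counts under 300 counts per million were discarded. Input came from sorting viable mCherry+ MUTYH knockout HEK-293 cells, carrying lentiviral MUTYH cDNA NNN codon-scan libraries in 10 pg/ml doxycycline and an 8OG:A GFP repair reporter, into GFP+ and GFP− bins at 72 h, three replicates per tile, followed by tile amplicon sequencing.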
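Further: cells sorted at 72 h after reporter transfection.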

Compared with MRKPRAAVGSGHRKQAASQEGRQKHAKNNSQAKPSACDGLARQPEEVVLQASVSSYHLFRDVAEVTAFRGSLLSWYDQEKRDLPWRRRAEDEMDLDRRAYAVWVSEVMLQQTQVATVINYYTGWMQKWPTLQDLASASLEEVNQLWAGLGYYSRGRRLQEGARKVVEELGGHMPRTAETLQQLLPGVGRYTAGAIASIAFGQATGVVDGNVARVLCRVRAIGADPSSTLVSQQLWGLAQQLVDPARPGDFNQAAMELGATVCTPQRPLCSQCPVESLCRARQRVEQEQLLASGSLSGSPDVEECAPNTGQCHLCLPPSEPWDQTLGVVNFPRKCSRKPPREESSATCVLEQPGALGAQILLVQRPNSGLLAGLWEFPSVTWEPSEQLQRKALLQELQRWAGPLPATHLRHLGEVVHTFSHIKLTYQVYGLALEGQTPVTTVPPGARWLTQEEFHTAAVSTAMKKVFRVYQGQQPGTCMGSKRSQVSSPCSRKKPRMGQQVLDNFFRSHISTDAHSLNSAAQ [A334C], MRKPRAAVGSGHRKQAASQEGRQKHAKNNSQAKPSACDGLARQPEEVVLQASVSSYHLFRDVAEVTAFRGSLLSWYDQEKRDLPWRRRAEDEMDLDRRAYAVWVSEVMLQQTQVATVINYYTGWMQKWPTLQDLASASLEEVNQLWAGLGYYSRGRRLQEGARKVVEELGGHMPRTAETLQQLLPGVGRYTAGAIASIAFGQATGVVDGNVARVLCRVRAIGADPSSTLVSQQLWGLAQQLVDPARPGDFNQAAMELGATVCTPQRPLCSQCPVESLCRARQRVEQEQLLASGSLSGSPDVEECAPNTGQCHLCLPPSEPWDQTLGVVNFPRRASRKPPREESSATCVLEQPGALGAQILLVQRPNSGLLAGLWEFPSVTWEPSEQLQRKALLQELQRWAGPLPATHLRHLGEVVHTFSHIKLTYQVYGLALEGQTPVTTVPPGARWLTQEEFHTAAVSTAMKKVFRVYQGQQPGTCMGSKRSQVSSPCSRKKPRMGQQVLDNFFRSHISTDAHSLNSAAQ [K333R] is higher in “8OG:A repair function score” value: -0.0888 for the first, 0.0284 for the second.

Compared with MRKPRAAVGSGHRKQAASQEGRQKHAKNNSQAKPSACDGLARQPEEVVLQASVSSYHLFRDVAEVTAFRGSLLSWYDQEKRDLPWRRRAEDEMDLDRRAYAVWVSEVMLQQTQVATVINYYTGWMQKWPTLQDLASASLEEVNQLWAGLGYYSRGRRLQEGARKVVEELGGHMPRTAETLQQLLPGVGRYTAGAIASIAFGQATGVVDGNVARVLCRVRAIGADPSSTLVSQQLWGLAQQLVDPARPGDFNQAAMELGATVCTPQRPLCSQCPVESLCRARQRVEQEQLLASGSLSGSPDVEECAPNTGQCHLCLPPSEPWDQTLGVVNFPRWASRKPPREESSATCVLEQPGALGAQILLVQRPNSGLLAGLWEFPSVTWEPSEQLQRKALLQELQRWAGPLPATHLRHLGEVVHTFSHIKLTYQVYGLALEGQTPVTTVPPGARWLTQEEFHTAAVSTAMKKVFRVYQGQQPGTCMGSKRSQVSSPCSRKKPRMGQQVLDNFFRSHISTDAHSLNSAAQ [K333W], MRKPRAAVGSGHRKQAASQEGRQKHAKNNSQAKPSACDGLARQPEEVVLQASVSSYHLFRDVAEVTAFRGSLLSWYDQEKRDLPWRRRAEDEMDLDRRAYAVWVSEVMLQQTQVATVINYYTGWMQKWPTLQDLASASLEEVNQLWAGLGYYSRGRRLQEGARKVVEELGGHMPRTAETLQQLLPGVGRYTAGAIASIAFGQATGVVDGNVARVLCRVRAIGADPSSTLVSQQLWGLAQQLVDPARPGDFNQAAMELGATVCTPQRPLCSQCPVESLCRARQRVEQEQLLASGSLSGSPDVEECAPNTGQCHLCLPPSEPWDQTLGVVNFPRLASRKPPREESSATCVLEQPGALGAQILLVQRPNSGLLAGLWEFPSVTWEPSEQLQRKALLQELQRWAGPLPATHLRHLGEVVHTFSHIKLTYQVYGLALEGQTPVTTVPPGARWLTQEEFHTAAVSTAMKKVFRVYQGQQPGTCMGSKRSQVSSPCSRKKPRMGQQVLDNFFRSHISTDAHSLNSAAQ [K333L] is lower in “8OG:A repair function score” value: -0.0431 for the first, -0.227 for the second.

Going from MRKPRAAVGSGHRKQAASQEGRQKHAKNNSQAKPSACDGLARQPEEVVLQASVSSYHLFRDVAEVTAFRGSLLSWYDQEKRDLPWRRRAEDEMDLDRRAYAVWVSEVMLQQTQVATVINYYTGWMQKWPTLQDLASASLEEVNQLWAGLGYYSRGRRLQEGARKVVEELGGHMPRTAETLQQLLPGVGRYTAGAIASIAFGQATGVVDGNVARVLCRVRAIGADPSSTLVSQQLWGLAQQLVDPARPGDFNQAAMELGATVCTPQRPLCSQCPVESLCRARQRVEQEQLLASGSLSGSPDVEECAPNTGQCHLCLPPSEPWDQTLGVVNFPRMASRKPPREESSATCVLEQPGALGAQILLVQRPNSGLLAGLWEFPSVTWEPSEQLQRKALLQELQRWAGPLPATHLRHLGEVVHTFSHIKLTYQVYGLALEGQTPVTTVPPGARWLTQEEFHTAAVSTAMKKVFRVYQGQQPGTCMGSKRSQVSSPCSRKKPRMGQQVLDNFFRSHISTDAHSLNSAAQ [K333M] to MRKPRAAVGSGHRKQAASQEGRQKHAKNNSQAKPSACDGLARQPEEVVLQASVSSYHLFRDVAEVTAFRGSLLSWYDQEKRDLPWRRRAEDEMDLDRRAYAVWVSEVMLQQTQVATVINYYTGWMQKWPTLQDLASASLEEVNQLWAGLGYYSRGRRLQEGARKVVEELGGHMPRTAETLQQLLPGVGRYTAGAIASIAFGQATGVVDGNVARVLCRVRAIGADPSSTLVSQQLWGLAQQLVDPARPGDFNQAAMELGATVCTPQRPLCSQCPVESLCRARQRVEQEQLLASGSLSGSPDVEECAPNTGQCHLCLPPSEPWDQTLGVVNFPRQASRKPPREESSATCVLEQPGALGAQILLVQRPNSGLLAGLWEFPSVTWEPSEQLQRKALLQELQRWAGPLPATHLRHLGEVVHTFSHIKLTYQVYGLALEGQTPVTTVPPGARWLTQEEFHTAAVSTAMKKVFRVYQGQQPGTCMGSKRSQVSSPCSRKKPRMGQQVLDNFFRSHISTDAHSLNSAAQ [K333Q], the “8OG:A repair function score” value falls from -0.0664 to -0.166.

Compared with MRKPRAAVGSGHRKQAASQEGRQKHAKNNSQAKPSACDGLARQPEEVVLQASVSSYHLFRDVAEVTAFRGSLLSWYDQEKRDLPWRRRAEDEMDLDRRAYAVWVSEVMLQQTQVATVINYYTGWMQKWPTLQDLASASLEEVNQLWAGLGYYSRGRRLQEGARKVVEELGGHMPRTAETLQQLLPGVGRYTAGAIASIAFGQATGVVDGNVARVLCRVRAIGADPSSTLVSQQLWGLAQQLVDPARPGDFNQAAMELGATVCTPQRPLCSQCPVESLCRARQRVEQEQLLASGSLSGSPDVEECAPNTGQCHLCLPPSEPWDQTLGVVNFPRNASRKPPREESSATCVLEQPGALGAQILLVQRPNSGLLAGLWEFPSVTWEPSEQLQRKALLQELQRWAGPLPATHLRHLGEVVHTFSHIKLTYQVYGLALEGQTPVTTVPPGARWLTQEEFHTAAVSTAMKKVFRVYQGQQPGTCMGSKRSQVSSPCSRKKPRMGQQVLDNFFRSHISTDAHSLNSAAQ [K333N], MRKPRAAVGSGHRKQAASQEGRQKHAKNNSQAKPSACDGLARQPEEVVLQASVSSYHLFRDVAEVTAFRGSLLSWYDQEKRDLPWRRRAEDEMDLDRRAYAVWVSEVMLQQTQVATVINYYTGWMQKWPTLQDLASASLEEVNQLWAGLGYYSRGRRLQEGARKVVEELGGHMPRTAETLQQLLPGVGRYTAGAIASIAFGQATGVVDGNVARVLCRVRAIGADPSSTLVSQQLWGLAQQLVDPARPGDFNQAAMELGATVCTPQRPLCSQCPVESLCRARQRVEQEQLLASGSLSGSPDVEECAPNTGQCHLCLPPSEPWDQTLGVVNFPRPASRKPPREESSATCVLEQPGALGAQILLVQRPNSGLLAGLWEFPSVTWEPSEQLQRKALLQELQRWAGPLPATHLRHLGEVVHTFSHIKLTYQVYGLALEGQTPVTTVPPGARWLTQEEFHTAAVSTAMKKVFRVYQGQQPGTCMGSKRSQVSSPCSRKKPRMGQQVLDNFFRSHISTDAHSLNSAAQ [K333P] is higher in “8OG:A repair function score” value: -0.205 for the first, 0.038 for the second.

Compared with MRKPRAAVGSGHRKQAASQEGRQKHAKNNSQAKPSACDGLARQPEEVVLQASVSSYHLFRDVAEVTAFRGSLLSWYDQEKRDLPWRRRAEDEMDLDRRAYAVWVSEVMLQQTQVATVINYYTGWMQKWPTLQDLASASLEEVNQLWAGLGYYSRGRRLQEGARKVVEELGGHMPRTAETLQQLLPGVGRYTAGAIASIAFGQATGVVDGNVARVLCRVRAIGADPSSTLVSQQLWGLAQQLVDPARPGDFNQAAMELGATVCTPQRPLCSQCPVESLCRARQRVEQEQLLASGSLSGSPDVEECAPNTGQCHLCLPPSEPWDQTLGVVNFPRSASRKPPREESSATCVLEQPGALGAQILLVQRPNSGLLAGLWEFPSVTWEPSEQLQRKALLQELQRWAGPLPATHLRHLGEVVHTFSHIKLTYQVYGLALEGQTPVTTVPPGARWLTQEEFHTAAVSTAMKKVFRVYQGQQPGTCMGSKRSQVSSPCSRKKPRMGQQVLDNFFRSHISTDAHSLNSAAQ [K333S], MRKPRAAVGSGHRKQAASQEGRQKHAKNNSQAKPSACDGLARQPEEVVLQASVSSYHLFRDVAEVTAFRGSLLSWYDQEKRDLPWRRRAEDEMDLDRRAYAVWVSEVMLQQTQVATVINYYTGWMQKWPTLQDLASASLEEVNQLWAGLGYYSRGRRLQEGARKVVEELGGHMPRTAETLQQLLPGVGRYTAGAIASIAFGQATGVVDGNVARVLCRVRAIGADPSSTLVSQQLWGLAQQLVDPARPGDFNQAAMELGATVCTPQRPLCSQCPVESLCRARQRVEQEQLLASGSLSGSPDVEECAPNTGQCHLCLPPSEPWDQTLGVVNFPRTASRKPPREESSATCVLEQPGALGAQILLVQRPNSGLLAGLWEFPSVTWEPSEQLQRKALLQELQRWAGPLPATHLRHLGEVVHTFSHIKLTYQVYGLALEGQTPVTTVPPGARWLTQEEFHTAAVSTAMKKVFRVYQGQQPGTCMGSKRSQVSSPCSRKKPRMGQQVLDNFFRSHISTDAHSLNSAAQ [K333T] is higher in “8OG:A repair function score” value: -0.141 for the first, -0.137 for the second.

Compared with MRKPRAAVGSGHRKQAASQEGRQKHAKNNSQAKPSACDGLARQPEEVVLQASVSSYHLFRDVAEVTAFRGSLLSWYDQEKRDLPWRRRAEDEMDLDRRAYAVWVSEVMLQQTQVATVINYYTGWMQKWPTLQDLASASLEEVNQLWAGLGYYSRGRRLQEGARKVVEELGGHMPRTAETLQQLLPGVGRYTAGAIASIAFGQATGVVDGNVARVLCRVRAIGADPSSTLVSQQLWGLAQQLVDPARPGDFNQAAMELGATVCTPQRPLCSQCPVESLCRARQRVEQEQLLASGSLSGSPDVEECAPNTGQCHLCLPPSEPWDQTLGVVNFPRYASRKPPREESSATCVLEQPGALGAQILLVQRPNSGLLAGLWEFPSVTWEPSEQLQRKALLQELQRWAGPLPATHLRHLGEVVHTFSHIKLTYQVYGLALEGQTPVTTVPPGARWLTQEEFHTAAVSTAMKKVFRVYQGQQPGTCMGSKRSQVSSPCSRKKPRMGQQVLDNFFRSHISTDAHSLNSAAQ [K333Y], MRKPRAAVGSGHRKQAASQEGRQKHAKNNSQAKPSACDGLARQPEEVVLQASVSSYHLFRDVAEVTAFRGSLLSWYDQEKRDLPWRRRAEDEMDLDRRAYAVWVSEVMLQQTQVATVINYYTGWMQKWPTLQDLASASLEEVNQLWAGLGYYSRGRRLQEGARKVVEELGGHMPRTAETLQQLLPGVGRYTAGAIASIAFGQATGVVDGNVARVLCRVRAIGADPSSTLVSQQLWGLAQQLVDPARPGDFNQAAMELGATVCTPQRPLCSQCPVESLCRARQRVEQEQLLASGSLSGSPDVEECAPNTGQCHLCLPPSEPWDQTLGVVNFPRVASRKPPREESSATCVLEQPGALGAQILLVQRPNSGLLAGLWEFPSVTWEPSEQLQRKALLQELQRWAGPLPATHLRHLGEVVHTFSHIKLTYQVYGLALEGQTPVTTVPPGARWLTQEEFHTAAVSTAMKKVFRVYQGQQPGTCMGSKRSQVSSPCSRKKPRMGQQVLDNFFRSHISTDAHSLNSAAQ [K333V] is lower in “8OG:A repair function score” value: -0.0195 for the first, -0.0946 for the second.
